Laboratory results as given in IntAct's records for PubMed 15171681.

B1: Protein S100-A1 (Homo sapiens), P23297 (parent)
chain: MGSELETAMETLINVFHAHSGKEGDKYKLSKKELKELLQTELSGFLDAQKDVDAVDKVMKELDENGDGEVDFQEYVVLVAALTVACNNFFWENS
partner: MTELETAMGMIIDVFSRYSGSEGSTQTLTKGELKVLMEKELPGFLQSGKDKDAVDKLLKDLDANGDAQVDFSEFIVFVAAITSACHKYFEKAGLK
B2: Protein S100-P (Homo sapiens), P25815 (parent)
chain: B1 partner

Variants of: B1
Details: with S100P

Row | effect of a mutation on the interaction | Variant
1 | disrupting interaction | F16A
2 | disrupting interaction | L12H;F16A;F72L

Variants of: B2
Details: with S100A1, P23297

Row | effect of a mutation on the interaction | Variant
3 | disrupting interaction | F15A
4 | disrupting interaction | I11A;I12A

Further lines, the variant ahead of its results:

Row | Variant | effect of a mutation on the interaction
5 | F74V | disrupting interaction
6 | F74G | disrupting interaction
7 | F71A | disrupting interaction
8 | I75G;V76G | decreasing interaction
9 | I75G | disrupting interaction
